According to the supplement of paper PMC12764529:
± gives the half width of the 95% confidence interval.

How the values were obtained:
[1] = folding stability dG unfold from chymotrypsin proteolysis; higher = more stable
Outline: (§1)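 K50 was inferred by Bayesian fitting of sequencing counts obtained after protease digestion of designed mini-proteins. Unfolding free energy was derived by comparison with a sequence-predicted unfolded-state K50 and a shared folded-state K50, for each protease or both combined. The mini-proteins were under 80 residues, had no cysteine, were carried in a PA-tagged cDNA display construct, and were kept only if AlphaFold2 dimer inter-PAE exceeded 15.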

[2] = folding stability dG unfold (combined trypsin and chymotrypsin); higher = more stable
Outline: as §1

[3] = folding stability dG unfold from trypsin proteolysis; higher = more stable
Outline: as §1

SAGKVYRIKATAPDGSTAIIEIPENGNAKIKIFYPNGVKEITINLDPNVKIEEILEKFPNFIISSIEEESAG [r5_259_TrMRF]
folding stability dG unfold [1]: 3.95 ± 0.22 kcal/mol | folding stability dG unfold [2]: 4.15 ± 0.22 kcal/mol | folding stability dG unfold [3]: 5.01 ± 0.8 kcal/mol

SAGKYVTFNFPINIPPGDIKQMLNMIRDIARNLGLKPITDIEIDNIQRDDDYYRIRFEITIKVPPGDLKSAG [r5_575_TrROS]
folding stability dG unfold [1]: 4.29 ± 0.12 kcal/mol | folding stability dG unfold [2]: 3.34 ± 0.43 kcal/mol | folding stability dG unfold [3]: 2.44 ± 0.18 kcal/mol

SAGLEVEIVSVEYDEETNTVKVKVKVRNPETNEVTTLELTIKLPPPPPPVEKVEVKEVKDGKVTVTYEESAG [r5_150_TrROS_Hall]
folding stability dG unfold [1]: 0.394 ± 0.13 kcal/mol | folding stability dG unfold [2]: 1.28 ± 0.48 kcal/mol | folding stability dG unfold [3]: 1.43 ± 0.18 kcal/mol

SAGLFITVEANPNNGTMRITLYRMEPRKDGDGPKMDIEPIAEIEVPMESPEEARDKAKDKAKNLLDKFNSAG [r5_956_TrROS]
folding stability dG unfold [1]: 1.85 ± 0.14 kcal/mol | folding stability dG unfold [2]: 1.58 ± 0.11 kcal/mol | folding stability dG unfold [3]: 1.06 ± 0.064 kcal/mol

SAGLGIWRDPDMWKLEFNLLLPNGYVYKVEVTVTPDGIDVSIEPVPIPPVPTADSPEDAKEYQKQNENQSAG [r5_272_TrROS]
folding stability dG unfold [1]: 2.61 ± 0.18 kcal/mol | folding stability dG unfold [2]: 2.06 ± 0.35 kcal/mol | folding stability dG unfold [3]: 1.06 ± 0.13 kcal/mol

SAGLRLVLELELEVPPDVPPERVREAVEREVRDILGRLGIPLPPDARIVVEEVERRGRRVRFRVEVDFPSAG [r14_735_TrMRF]
folding stability dG unfold [1]: 5.08 ± 0.18 kcal/mol | folding stability dG unfold [2]: 5.01 ± 0.21 kcal/mol | folding stability dG unfold [3]: 5.13 ± 0.32 kcal/mol

SAGLSEIVKKLFPEEEIEIEVEERTLPGPPNIPVVEFDVRITFKDGRTFRARAIRYPDFVLIEVEPLEPSAG [r14_28_TrMRF]
folding stability dG unfold [1]: 3.75 ± 0.065 kcal/mol | folding stability dG unfold [2]: 3.62 ± 0.11 kcal/mol | folding stability dG unfold [3]: 3.26 ± 0.11 kcal/mol

SAGLSPQVRDWLRDLFQEEGFKVKEIDVQPHPNGQMYIKINYPNGKPIKEIPVPPGMDTPEQALKMIRKSAG [r5_352_TrROS]
folding stability dG unfold [1]: 0.498 ± 0.13 kcal/mol | folding stability dG unfold [2]: 0.312 ± 0.07 kcal/mol | folding stability dG unfold [3]: -0.00734 ± 0.11 kcal/mol

SAGLVVTKLPGDGTLRITLPPPGAPLVLTIPLDPGNGTLSVTVTRPDGRSETYTFPGGSIDEVIERLLSAGG [r19_159_JUSTAS]
folding stability dG unfold [1]: 2.902 ± 0.021 kcal/mol | folding stability dG unfold [2]: 2.72 ± 0.093 kcal/mol | folding stability dG unfold [3]: 2.37 ± 0.074 kcal/mol

SAGMATTTELPNGFLTTYEDGTTSFIPAEPPEVPVTTVPVTSPEEAAAAVAAAGLSVEVVTADSVTAPASAG [r5_328_JUSTAS]
folding stability dG unfold [1]: 1.2 ± 0.027 kcal/mol | folding stability dG unfold [2]: 1.63 ± 0.07 kcal/mol | folding stability dG unfold [3]: 2.06 ± 0.091 kcal/mol

SAGMDDAEAEKLALEEAEKIAKEAGVPEIEVEVERTPSDRWRATIKFPKTGKTYTIELVGDEPSLVEKGSAG [r14_925_JUSTAS]
folding stability dG unfold [1]: 1.27 ± 0.2 kcal/mol | folding stability dG unfold [2]: 1.1 ± 0.14 kcal/mol | folding stability dG unfold [3]: 1.01 ± 0.049 kcal/mol

SAGMDIELVVPIESPGSPEEIEKTVEELKEKLEKLGYKVEVSREIHPVGDKLVATITIKITAPPDLPLLSAG [r5_217_JUSTAS]
folding stability dG unfold [1]: 2.31 ± 0.095 kcal/mol | folding stability dG unfold [2]: 2.85 ± 0.16 kcal/mol | folding stability dG unfold [3]: 3.49 ± 0.28 kcal/mol

SAGMDIIKELLEKNPKPKVIRMHMNPPNGYFRIQVNGKPIDLPLPPGHYEMEFVVDPKGKIEDVKPHPMSAG [r5_329_TrROS]
folding stability dG unfold [1]: 0.51 ± 0.16 kcal/mol | folding stability dG unfold [2]: 0.462 ± 0.16 kcal/mol | folding stability dG unfold [3]: 0.0656 ± 0.15 kcal/mol

SAGMDMEEAEKLAEEIAEQLAKELEKKTGIKPEKIKIEVTVTKLPDGSYLITIKATLEDKEVEKTYTIASAG [r14_226_JUSTAS]
folding stability dG unfold [1]: 2.28 ± 0.066 kcal/mol | folding stability dG unfold [2]: 2.68 ± 0.12 kcal/mol | folding stability dG unfold [3]: 3.11 ± 0.21 kcal/mol

SAGMDPDDPDYMIFINLDIKLEVEPDPDNGKPYVKLEIRITNIMVFDPDNGKMEMEPIEIEMTLPPDDISAG [r5_270_TrROS]
folding stability dG unfold [1]: 3.09 ± 0.17 kcal/mol | folding stability dG unfold [2]: 2.48 ± 0.3 kcal/mol | folding stability dG unfold [3]: 1.3 ± 0.083 kcal/mol

SAGMEEEVEERTLPDGSPVTVTTFTDPATGKRTVFVRYPETGEWEVRDEEGNLIKKYGPVSFEEAKKELSAG [r5_757_JUSTAS]
folding stability dG unfold [1]: 2.04 ± 0.064 kcal/mol | folding stability dG unfold [2]: 1.97 ± 0.09 kcal/mol | folding stability dG unfold [3]: 1.67 ± 0.024 kcal/mol

SAGMEEKLVEAVFEEGPLEEAVEFIRDFLESEGYEVEPLEVEVLSVEETEEGPRVRVRARVLVRPPDASAGG [r19_325_TrMRF]
folding stability dG unfold [1]: 1.52 ± 0.16 kcal/mol | folding stability dG unfold [2]: 1.34 ± 0.18 kcal/mol | folding stability dG unfold [3]: 1.11 ± 0.081 kcal/mol

SAGMEELAKELAEKLAEELPPGWKIVEIKVERLEDGTLRVRITIYRLDENGKLVEKREIEIEIPLEELSAGG [r19_28_TrROS_Hall]
folding stability dG unfold [1]: 4.63 ± 0.081 kcal/mol | folding stability dG unfold [2]: 4.5 ± 0.15 kcal/mol | folding stability dG unfold [3]: 3.91 ± 0.22 kcal/mol

SAGMEEVEITIKITIEVPEGEEVTPEELAEALREAGFEIVEVKVEKTEDGRKRVTVEIKIRLTPEELEKSAG [r5_167_TrROS_Hall]
folding stability dG unfold [1]: 2.02 ± 0.15 kcal/mol | folding stability dG unfold [2]: 2.23 ± 0.19 kcal/mol | folding stability dG unfold [3]: 2.31 ± 0.2 kcal/mol

SAGMEFPANTTVELTLTLTFPVPLPGEGTGPVTLTYTLRLEVRPKPRIPLPDPALRELLERLGLSPDLLSAG [r5_624_TrMRF]
folding stability dG unfold [1]: 4.88 ± 0.13 kcal/mol | folding stability dG unfold [2]: 4.43 ± 0.4 kcal/mol | folding stability dG unfold [3]: 3.88 ± 0.39 kcal/mol

SAGMEKKTFTFPTRTVLVVRGPDGTVLVVVDDPDGDPEVLTPDGTPVPYVDLPNGQRLYRFPAALFEKVSAG [r5_457_TrMRF]
folding stability dG unfold [1]: 3.182 ± 0.023 kcal/mol | folding stability dG unfold [2]: 2.88 ± 0.063 kcal/mol | folding stability dG unfold [3]: 2.1 ± 0.035 kcal/mol

SAGMEVEYTLTFELPGGLALRVTAKVRFNPETNELEVLELKVELLPLPPAPPPFISPEEAEKNGLLPEESAG [r5_393_TrMRF]
folding stability dG unfold [1]: 4.44 ± 0.27 kcal/mol | folding stability dG unfold [2]: 4.5 ± 0.35 kcal/mol | folding stability dG unfold [3]: 3.81 ± 0.28 kcal/mol

SAGMEVKITVEREEDGTLRITITVRPDMTPEELAALLEEELGLEVRVVRDEETGERVLEIEIPLPEELESAG [r5_742_TrROS_Hall]
folding stability dG unfold [1]: 2.16 ± 0.072 kcal/mol | folding stability dG unfold [2]: 2.39 ± 0.11 kcal/mol | folding stability dG unfold [3]: 2.64 ± 0.12 kcal/mol

SAGMEYLEVKVTIEPKLPEELREKLKGKKVTVTIIVPKEMSEEEKKKLLEELRDLGVKKVEIKSLEELKSAG [r5_60_TrROS_Hall]
folding stability dG unfold [1]: 1.93 ± 0.077 kcal/mol | folding stability dG unfold [2]: 1.89 ± 0.11 kcal/mol | folding stability dG unfold [3]: 1.65 ± 0.085 kcal/mol

SAGMGEAELAAARAANPDRPLVPVETYEIPLPPDVSLEEVEKELREKYPPGKVKVTADPATGTVTITISSAG [r5_694_JUSTAS]
folding stability dG unfold [1]: 0.969 ± 0.04 kcal/mol | folding stability dG unfold [2]: 0.684 ± 0.15 kcal/mol | folding stability dG unfold [3]: -0.221 ± 0.14 kcal/mol

SAGMGLVGRTKDGKWIPAADLTEEQLKDMELDLGEPLPPVVVKVEVEWKLSPEDKLEVKLKVEVFVEGSAGG [r19_232_TrMRF]
folding stability dG unfold [1]: 2.87 ± 0.07 kcal/mol | folding stability dG unfold [2]: 2.17 ± 0.2 kcal/mol | folding stability dG unfold [3]: 1.02 ± 0.15 kcal/mol

SAGMGPNEVKPIEIEFEVYETGEGEPYLVGKAIAKLYVDPVEGTVRLEIKDPEKPEPFITFEFPVEEISAGG [r19_413_TrMRF]
folding stability dG unfold [1]: 2.22 ± 0.037 kcal/mol | folding stability dG unfold [2]: 1.94 ± 0.065 kcal/mol | folding stability dG unfold [3]: 1.38 ± 0.039 kcal/mol

SAGMGVSTFPVEIVTKPDDITEEELKKRAIERLKKLFPGVKLKEVKFDIPVRELPGDEIVITMNITVNVSAG [r14_145_JUSTAS]
folding stability dG unfold [1]: 1.01 ± 0.035 kcal/mol | folding stability dG unfold [2]: 1.33 ± 0.056 kcal/mol | folding stability dG unfold [3]: 1.57 ± 0.068 kcal/mol

SAGMIDYIEIKPEKLPNGKYKVTITIYDSSTGTTTTYEKEMTPEEAKELAEKIKESNPDKPVKFGNLESAGG [r19_317_JUSTAS]
folding stability dG unfold [1]: 1.78 ± 0.089 kcal/mol | folding stability dG unfold [2]: 1.93 ± 0.2 kcal/mol | folding stability dG unfold [3]: 2.06 ± 0.093 kcal/mol

SAGMIEIKSEDGSTFRIEFDKETGEVKVEYDKNTGVVKVTLPDGKEVEIEIEGMSLEEVLKKLEELLKKSAG [r5_447_TrROS_Hall]
folding stability dG unfold [1]: 1.78 ± 0.13 kcal/mol | folding stability dG unfold [2]: 1.94 ± 0.22 kcal/mol | folding stability dG unfold [3]: 2.01 ± 0.19 kcal/mol

SAGMIEKLIREAFPAGAKSIRIEVRRLPDGSLLVRIDIHFDDPEVRRALADRIEELLGLPIPDLRVSPDSAG [r5_542_TrMRF]
folding stability dG unfold [1]: 3.067 ± 0.028 kcal/mol | folding stability dG unfold [2]: 2.81 ± 0.042 kcal/mol | folding stability dG unfold [3]: 2.26 ± 0.035 kcal/mol

SAGMIKITIITENGEEITIEIPENMSEEELKELAEKIAKEIAKKLNIPKVKIKKIKIEKIELTPEQIKKSAG [r5_377_TrROS_Hall]
folding stability dG unfold [1]: 1.97 ± 0.098 kcal/mol | folding stability dG unfold [2]: 1.89 ± 0.36 kcal/mol | folding stability dG unfold [3]: 0.887 ± 0.077 kcal/mol

SAGMIVTVLSKEVDPATGSTTTYSVSTDPETGETFLYTTTTTGDTVTTTRTVFFPGTGTTSTSTTTTSASAG [r5_150_JUSTAS]
folding stability dG unfold [1]: 3.019 ± 0.017 kcal/mol | folding stability dG unfold [2]: 2.73 ± 0.046 kcal/mol | folding stability dG unfold [3]: 2.17 ± 0.056 kcal/mol

SAGMKEGEVEKVEVEVEITIEVYNENGEKVKTFKAKVKVEVVRNENGELYVKAEIEFEDGTKFEFVVKLSAG [r5_580_TrROS_Hall]
folding stability dG unfold [1]: 3.71 ± 0.09 kcal/mol | folding stability dG unfold [2]: 3.81 ± 0.54 kcal/mol | folding stability dG unfold [3]: 2.96 ± 0.35 kcal/mol

SAGMKEKAIDALKEFFEEEGIKVKKIVIEEKPDGTYKITVYGENGKPIFEIEVPKDVKTSEELKKLIKKSAG [r5_352_TrMRF]
folding stability dG unfold [1]: 3.67 ± 0.12 kcal/mol | folding stability dG unfold [2]: 3.61 ± 0.3 kcal/mol | folding stability dG unfold [3]: 2.71 ± 0.52 kcal/mol

SAGMKETLKVKIKVKLSEEQREKLKKALEELGATVEVDEETGEVTVEVSAEQVEALKKIPGVEEIEVESAGG [r19_212_TrROS_Hall]
folding stability dG unfold [1]: 2.61 ± 0.24 kcal/mol | folding stability dG unfold [2]: 2.76 ± 0.14 kcal/mol | folding stability dG unfold [3]: 3.22 ± 0.18 kcal/mol
